The text below walks through data of patent US20260055211A1.

For assay [1], the target named is anti-PR3 autoantibodies in PR3+ANCA patient serum. The experiment in a line: competition ELISA, low-titer serum ANCA 93 (1:100) pre-incubated with the binder, unblocked anti-PR3 IgG on a c-ANCA (PR3) ELISA kit, % of untreated.
The target is the same in assay [2]. In words: blocking ELISA: 1:100 serum pre-incubated 30 min with 0 to 100 µg/ml m1, c-ANCA ELISA kit; patient samples 1, 7, 24 and 58. In general terms: In an ELISA, binding on a coated surface is turned into a signal by an enzyme label.
For assay [3] the target is unchanged. In words: pull-down with binder-coated magnetic beads, serum PR3+ ANCA 4; 100 - (anti-PR3 IgG after binder beads / after control-protein beads x 100), c-ANCA ELISA.
Assay [4] shares this target. In words: depletion with m1-coated magnetic beads (1 mg beads, 1:50 serum, 10 min), flow-through measured by c-ANCA ELISA; five patient sera.
Assay [5] shares this target. In words: pull-down with binder-coated magnetic beads, serum PR3+ ANCA 93; 100 - (anti-PR3 IgG after binder beads / after control-protein beads x 100), c-ANCA ELISA.
For assay [6] the target is unchanged. The experiment in a line: pull-down with binder-coated magnetic beads, serum PR3+ ANCA 60; 100 - (anti-PR3 IgG after binder beads / after control-protein beads x 100), c-ANCA ELISA.
Assay [7] shares this target. The experiment in a line: pull-down with binder-coated magnetic beads, serum PR3+ ANCA 91; 100 - (anti-PR3 IgG after binder beads / after control-protein beads x 100), c-ANCA ELISA.
For assay [8] the target is unchanged. The experiment in a line: competition ELISA: serum PR3+ ANCA 1 (1:100) pre-incubated with the binder, unblocked anti-PR3 IgG measured on a c-ANCA (PR3) ELISA kit, % of untreated.
The target is the same in assay [9]. In words: competition ELISA, medium-titer serum ANCA 65 (1:100) pre-incubated with the binder, unblocked anti-PR3 IgG on a c-ANCA (PR3) ELISA kit, % of untreated.
Assay [10] shares this target. The experiment in a line: pull-down with binder-coated magnetic beads, serum PR3+ ANCA 97; 100 - (anti-PR3 IgG after binder beads / after control-protein beads x 100), c-ANCA ELISA.
The target is the same in assay [11]. The experiment in a line: blocking ELISA: 1:100 serum pre-incubated 30 min with 0 to 600 µg/ml m1, c-ANCA ELISA kit; 14 out of 15 patient sera of low, medium and high titer.
Assay [12] shares this target. The experiment in a line: competition ELISA, medium-titer serum ANCA 97 (1:100) pre-incubated with the binder, unblocked anti-PR3 IgG on a c-ANCA (PR3) ELISA kit, % of untreated.

B1: PR3 glycoengineered polypeptide (protein)
chain: IVGGHEAQPHSRPYMASLQMRGNPGSHFCGGTLIHPSFVLTAAHCLRDIPQRLVNVVLGAHNVRTQEPTQQHFSVAQVFLNNYDAENKLNDVLLIQLSSPANLSASVATVQLPQQDQPVPHGTQCLAMGWGRVGAHDPPAQVLQELNVTVVTAACRPHNICTFVPRRKAGICFGDAGGPLICDGIIQGIDSFVIWGCATRAAPDFFTRVALYVDWIRSTLRRVEAKGRPGGGGANSTAPAPAPAHHHHHHHHHH
modifications: N-glycans (81.5% A2GalNAc2, biantennary GalNAc-terminated) at the native sites N129 and N174 (numbering of UniProt P24158) and at the Asn of the C-terminal glycotag; 80-90% of molecules fully …
On to B1, for which the IC50 (read off the curve) in [1] stood at 0.5 µg/mL; in assay [8], 0.4 µg/mL; in assay [9] it was 0.4 µg/mL; in assay [12], 0.2 µg/mL. In addition, the residual binding percentage (residual autoantibodies against untreated serum) in [2] and in [11] was under 50% throughout. Moreover, the % of depletion was 81% in [3]; 88% in [5]; 91% in assay [6]; 53% in assay [7]; 51% in [10]. For the same molecule, the percentage of depletion of anti-PR3 autoantibodies in [4] is over 50%.
